From article PMC2363545

target: IGF-II (insulin-like growth factor-II); test: SPR; BIAcore; who was immobilised, buffer, pH and temperature not stated (abstract P25)

Row | Substance | Kd [nM] | koff [s⁻¹] | kon [M⁻¹ s⁻¹]
1 | IGF2R domain 11 (domain or fragment) | 153 | 0.0138 | 90000
2 | IGF2R domains 10-12 (domain or fragment) | 346 | 0.0086 | 24800
3 | IGF2R domains 10-13 (domain or fragment) | 49.3 | 0.00808 | 164000
4 | IGF2R domains 11-12 (domain or fragment) | 134 | 0.0082 | 61300
5 | IGF2R domains 11-13 (domain or fragment) | 42.6 | 0.00426 | 100000
6 | sIGF2R (domains 1-15), soluble insulin-like growth factor 2 receptor (from UniProt P11717 41-2304) | 9.55 | 0.0113 | 1.18e+06
